{"source": "paper PMC5678894", "about": "(Biochemistry, 2017)", "proteins": {"B1": {"name": "Full-length R67 dihydrofolate reductase (enzyme)", "chain": "MIRSSNEVSNPVAGNFVFPSNATFGMGDRVRKKSGAAWQGQIVGWYCTNLTPEGYAVESEAHPGSVQIYPVAALERIN"}, "B2": {"name": "Chymotrypsin-truncated R67 dihydrofolate reductase (domain or fragment)", "chain": "VFPSNATFGMGDRVRKKSGAAWQGQIVGWYCTNLTPEGYAVESEAHPGSVQIYPVAALERIN"}}, "molecular_target": "the molecule itself", "assay": "small angle neutron scattering"}
{"protein": "B1", "values": [{"measurement": "binding result", "result": "binds"}]}
{"protein": "B2", "values": [{"measurement": "binding result", "result": "binds"}]}
